Molecular target: Tim50^IMS (purified, recombinant) (S. cerevisiae) (UniProt Q02776)
Assay: cross-linking

Chain of UniProt Q02776 (Q02776 133-476): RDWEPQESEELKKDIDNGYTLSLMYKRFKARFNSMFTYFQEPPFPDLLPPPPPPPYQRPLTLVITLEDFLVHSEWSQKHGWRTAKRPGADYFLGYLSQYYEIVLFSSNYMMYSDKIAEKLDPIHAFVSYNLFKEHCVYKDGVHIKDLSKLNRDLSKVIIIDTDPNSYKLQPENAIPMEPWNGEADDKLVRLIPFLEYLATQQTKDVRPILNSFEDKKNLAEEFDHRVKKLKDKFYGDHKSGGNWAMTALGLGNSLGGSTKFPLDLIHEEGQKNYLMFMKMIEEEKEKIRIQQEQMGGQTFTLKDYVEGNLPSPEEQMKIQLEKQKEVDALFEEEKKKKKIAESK

fold cross-linking with TOCL over without TOCL: 6 fold
Substance: [35S]Tim23(F114C) (from UniProt P32897 1-222) (natural protein)
